3 molecules from patent US20240082313A1, “PHARMACEUTICAL COMPOSITIONS AND THEIR METHODS OF USE” (The Trustees of Indiana University, priority 2021, published 2024) can be followed below.

Assay [1] has as its system EO771 mammary tumor cells. Put plainly: Tumor selectivity from MTT-based viability (tumor vs non-tumor cells). Type of assay: cell-based, mouse. Particulars: tumor cells EO. The text has this:
(§1) Variations in tumor selectivity among the predicted tumor-suppressing proteins. Tumor-suppressing proteins may inhibit the progression of tumor cells but not inhibit the progression of non-tumor cells. Using the MTT-based viability, tumor selectivity was defined as a ratio of (reduction in MTT-based viability of tumor cells) to (reduction in MTT-based viability of non-tumor cells). The tumor selectivity may be above one to remove tumor cells and a larger value may signify a reduction in the inhibition of the growth of non-tumor cells. The tumor selectivity was determined using three tumor cells (4T1.2 mouse mammary tumor cells, EO771 mammary tumor cells, and MDA-MB-231 breast cancer cells) and three non-tumor cells (adipose cells, MLO-A5 osteocytes, and murine MSCs). […] Table 2 provides the tumor selectivity of 4T1.2 Oct4 CM, 4T1.2 c-Myc CM, and 10 tumor-suppressing protein candidates.

The subject of assay [2] is MDA-MB-231 breast cancer cells. Described as above. In kind it is cell-based, human.
Excerpt: as §1

The subject of assay [3] is 4T1.2 cells. Put plainly: TRANSWELL invasion assay. In kind it is cell-based, mouse. The protocol: TRANSWELL® invasion assay. In a TRANSWELL® invasion assay, approximately 5×10^4 cells in 200 μL serum-free DMEM were placed on the upper TRANSWELL® chamber (Thermo Fisher Scientific, Waltham, MA, USA) with MATRIGEL™ (100 μg/ml), and 800 μL of CM was added in the lower chamber. After 48 h, the cells that had invaded the lower side of the membrane were stained with Crystal Violet. At least five randomly chosen images were taken, and the average number of stained cells was determined.

The test system of assay [4] is 4T1.2 cells. The assay can be described thus: Western blot analysis. Type of assay: cell-based, mouse. The following applies: for level of Kdm3a: 4T1.2 cells; for Lrp5, MMP9, Runx2, TGFβ, and Snail: recombinant protein applied extracellularly to 4T1.2 cells. The protocol:
Western blot analysis. Cultured cells were lysed in a radio-immunoprecipitation assay (RIPA) buffer and proteins were fractionated by 10-15% SDS gels and electro-transferred to polyvinylidene difluoride (PVDF) transfer membranes (Millipore, Billerica, MA, USA). The membrane was incubated overnight with primary antibodies and then with secondary antibodies conjugated with horseradish peroxidase (Cell Signaling, Danvers, MA, USA). Antibodies against c-Myc, Oct4, Sox2, Klf4, Lrp5, Runx2, Snail, TGFβ, Eno1, Eef2, vinculin (Cell Signaling, Danvers, MA, USA), MMP9, NFATc1, cathepsin K (Santa Cruz, Dallas, TX, USA), TRAIL (Novus, Centennial, CO, USA), p53 (Invitrogen, Carlsbad, CA, USA), Hsp90ab1 (Abcam, Cambridge, UK), Kdm3a (Thermo-Fisher Scientific, Waltham, MA, USA) and β-actin as a control (Sigma, St. Louis, MO, USA) were employed. The level of proteins was determined using a SUPERSIGNAL™ west femto maximum sensitivity substrate (Thermo-Fisher Scientific, Waltham, MA, USA), and a luminescent image analyzer (LAS-3000, Fuji Film, Tokyo, Japan) was used to quantify signal intensities.

Assay [5] concerns 4T1.2 mouse mammary tumor cells. Put plainly: Tumor selectivity from MTT-based viability (tumor vs non-tumor cells). Type of assay: cell-based.
Excerpt: as §1

For assay [6], the system named is adipose-derived MSCs. The assay can be described thus: MTT-based viability of non-tumor cells. Type of assay: cell-based, human.
Excerpt: as §1

Assay [7] relates to PANC-1 pancreatic tumor cells. The assay can be described thus: TRANSWELL invasion assay. Type of assay: cell-based, human. Particulars: PANC-1 cells. On the procedure:
(§2) Invasion assay. The invasion capacity of cancer cells was determined using a 24-well plate, TRANSWELL® chambers (Thermo Fisher Scientific, Waltham, MA, USA) with […] pore size and MATRIGEL™. Cell invasion was measured in TRANSWELL® chambers with a coating including MATRIGEL™ (100 μg/ml). The cells in 200 μL serum-free DMEM were placed on the upper chamber and 800 μL iTS CM was added in the lower chamber. After 24 h, the cells that had invaded the lower side of the membrane were stained with Crystal Violet. At least five randomly chosen images were taken under a microscope, and the average number of stained cells that represented the relative invasion was determined.

The test system of assay [8] is PANC-1 pancreatic tumor cells. The assay can be described thus: EdU assay. The following applies: PANC-1 cells, EdU-based. Type of assay: cell-based, human. The protocol: (§3) EdU assays. Two thousand cells were seeded in 96-well plates on day 1, CM was added on day 2, and cellular proliferation was examined using a fluorescence-based cell proliferation kit (CLICK-IT™ EdU ALEXA FLUOR™ 488 Imaging Kit; Thermo-Fisher, Waltham, MA, USA). After fluorescent labeling, the number of fluorescently labeled cells were counted and the ratio to the total number of cells was determined.

For assay [9], the system named is EO771 mammary tumor cells. Put plainly: Wound-healing scratch assay. Particulars: EO771 cells. In kind it is cell-based, mouse. The protocol:
Two-dimensional motility assay. A wound-healing scratch motility assay was performed to measure 2-dimensional cell motility. Cells were seeded in 12-well plates, after cell attachment, a plastic pipette tip was used to scratch a gap on the cell layer. Images of the cell-free scratch zone were obtained via an inverted microscope at 0 h, and the areas newly occupied with cells were determined 48 h after scratching. The areas were quantified with Image J (National Institutes of Health, Maryland, USA).
Scratch assay. A wound-healing scratch assay was conducted to evaluate 2-dimensional migratory behavior. Approximately 4×10^5 cells were seeded in 12-well plates. After cell attachment, a plastic pipette tip was used to scratch a gap on the cell layer. After the removal of the floating cells, CM was added. Images of the cell-free scratch zone were collected at 0 h, and the areas newly occupied with cells were determined 24-48 h after scratching. The areas were quantified with IMAGE J™ (National Institutes of Health, Bethesda, MD, USA).

The subject of assay [10] is TRAMP prostate tumor cells. Put plainly: TRANSWELL invasion assay. Type of assay: cell-based. On the procedure:
as §2

In assay [11] the test system is 4T1.2 cells. The assay can be described thus: EdU assay. In kind it is cell-based, mouse. The protocol: EdU assay. Using a procedure previously reported, approximately 1,000 cells were seeded in 96-well plates on day 1. CM was added on day 2 and cellular proliferation was examined with a fluorescence-based cell proliferation kit (CLICK-IT™ EdU ALEXA FLUOR™ 488 Imaging Kit; Thermo-Fisher, Waltham, MA, USA) on day 4. After fluorescent labeling, the number of fluorescently labeled cells was counted and the ratio to the total number of cells was determined.

In assay [12] the test system is EO771 cells. The assay can be described thus: Western blot analysis. Type of assay: cell-based, mouse. On the procedure:
Western blot analysis. Cultured cells were lysed in a radio-immunoprecipitation assay buffer with protease inhibitors (Santa Cruz Biotechnology, Santa Cruz, CA, USA) and phosphatase inhibitors (Calbiochem, Billerica, MA, USA). After cell lysis, proteins were fractionated by 10-15% SDS gels and electro-transferred to polyvinylidene difluoride (“PVDF”) transfer membranes (Millipore, Billerica, MA, USA). After blocking 1 h with a blocking buffer (Bio-Rad), the membrane was incubated overnight with primary antibodies and then with secondary antibodies conjugated with horseradish peroxidase for 45 min (Cell Signaling, Danvers, MA, USA). Antibodies against β-catenin, cleaved-caspase 3, Runx2, Snail, Enolase-1 (Cell Signaling, Danvers, MA, USA), MMP9 (Santa Cruz, Dallas, TX, USA), TRAIL (Novus, Centennial, CO, USA), p53 (Invitrogen, Carlsbad, CA, USA), and β-actin as a control (Sigma, St. Louis, MO, USA), were employed. The level of proteins was determined using a SUPERSIGNAL™ west femto maximum sensitivity substrate (Thermo Scientific, Waltham, MA, USA), and a luminescent image analyzer (LAS-3000, Fuji Film, Tokyo, Japan) was used to quantify signal intensities.

Assay [13] relates to TRAMP prostate tumor cells. The assay can be described thus: EdU assay. The following applies: EdU-based. In kind it is cell-based. On the procedure: as §3
Assay [14] concerns EO771 tumor cells. Put plainly: MTT-based viability. Type of assay: cell-based, mouse.

“Hsp90ab1: heat shock protein 90 alpha family class B member 1 recombinant protein”: the Tumor selectivity in assay [1] (non-tumor cells A5) amounted to 1.55; in [1] (non-tumor cells MSC), 2.65; in assay [2] (non-tumor cells A5), 1.02; in [2] (non-tumor cells MSC), 1.74; in assay [5] (non-tumor cells A5), 1.68; in assay [5] (non-tumor cells MSC), 2.86. The TRANSWELL invasion entry in assay [3] was “reduced”. Further, the “level of Kdm3a” value in [4] is listed as “reduced”. In assay [4], the “Lrp5, MMP9, Runx2, TGFβ, and Snail” value is “downregulated”. Moreover, the “MTT-based viability of non-tumor cells” value in assay [6] is “elevated”.

B1: enolase 1: enolase 1 recombinant protein (protein, UniProt P17182 2-434, looked up)
Alpha-enolase: SILRIHAREIFDSRGNPTVEVDLYTAKGLFRAAVPSGASTGIYEALELRDNDKTRFMGKGVSQAVEHINKTIAPALVSKKVNVVEQEKIDKLMIEMDGTENKSKFGANAILGVSLAVCKAGAVEKGVPLYRHIADLAGNPEVILPVPAFNVINGGSHAGNKLAMQEFMILPVGASSFREAMRIGAEVYHNLKNVIKEKYGKDATNVGDEGGFAPNILENKEALELLKTAIAKAGYTDQVVIGMDVAASEFYRSGKYDLDFKSPDDPSRYITPDQLADLYKSFVQNYPVVSIEDPFDQDDWGAWQKFTASAGIQVVGDDLTVTNPKRIAKAASEKSCNCLLLKVNQIGSVTESLQACKLAQSNGWGVMVSHRSGETEDTFIADLVVGLCTGQIKTGAPCRSERLAKYNQILRIEEELGSKAKFAGRSFRNPLAK
For B1, the invasion entry in [7] and in [10] was “inhibited” in each case. Moreover, the Tumor selectivity in assay [1] (non-tumor cells A5) was determined as 3.29; in assay [1] (non-tumor cells MSC), 7.34; in assay [2] (non-tumor cells A5) it was 3.11; in [2] (non-tumor cells MSC) it was 6.94; in assay [5] (non-tumor cells A5) it was 1.48; in assay [5] (non-tumor cells MSC), 3.30. The proliferation result in assay [8] and in [13] was “inhibited” each time. In addition, in assay [9], the scratch-based migration entry is given as “inhibited”. In assay [11], the EdU-based proliferation entry is listed as “reduced”. The “expression of MMP9, Runx2, and Snail” value in assay [12] is “reduced”. Also, the “expression of p53 and TRAIL” value in assay [12] is “elevated”. Further, in assay [3], the TRANSWELL invasion result is given as “reduced”. Also, the MTT-based viability result in [14] was “significant decrease”. For the same molecule, the “level of Kdm3a” value in assay [4] is given as “reduced”. Also, the “Lrp5, MMP9, Runx2, TGFβ, and Snail” value in assay [4] is “downregulated”. In addition, the “MTT-based viability of non-tumor cells” value in assay [6] is on record as “elevated”.

B2: vinculin: vinculin recombinant protein (protein, UniProt Q64727 1-1066, looked up)
Vinculin: MPVFHTRTIESILEPVAQQISHLVIMHEEGEVDGKAIPDLTAPVAAVQAAVSNLVRVGKETVQTTEDQILKRDMPPAFIKVENACTKLVQAAQMLQSDPYSVPARDYLIDGSRGILSGTSDLLLTFDEAEVRKIIRVCKGILEYLTVAEVVETMEDLVTYTKNLGPGMTKMAKMIDERQQELTHQEHRVMLVNSMNTVKELLPVLISAMKIFVTTKNSKNQGIEEALKNRNFTVEKMSAEINEIIRVLQLTSWDEDAWASKDTEAMKRALASIDSKLNQAKGWLRDPNASPGDAGEQAIRQILDEAGKVGELCAGKERREILGTCKMLGQMTDQVADLRARGQGASPVAMQKAQQVSQGLDVLTAKVENAARKLEAMTNSKQSIAKKIDAAQNWLADPNGGPEGEEQIRGALAEARKIAELCDDPKERDDILRSLGEIAALTSKLGDLRRQGKGDSPEARALAKQVATALQNLQTKTNRAVANSRPAKAAVHLEGKIEQAQRWIDNPTVDDRGVGQAAIRGLVAEGHRLANVMMGPYRQDLLAKCDRVDQLTAQLADLAARGEGESPQARALASQLQDSLKDLKAQMQEAMTQEVSDVFSDTTTPIKLLAVAATAPPDAPNREEVFDERAANFENHSGRLGATAEKAAAVGTANKSTVEGIQASVKTARELTPQVISAARILLRNPGNQAAYEHFETMKNQWIDNVEKMTGLVDEAIDTKSLLDASEEAIKKDLDKCKVAMANIQPQMLVAGATSIARRANRILLVAKREVENSEDPKFREAVKAASDELSKTISPMVMDAKAVAGNISDPGLQKSFLDSGYRILGAVAKVREAFQPQEPDFPPPPPDLEQLRLTDELAPPKPPLPEGEVPPPRPPPPEEKDEEFPEQKAGEVINQPMMMAARQLHDEARKWSSKGNDIIAAAKRMALLMAEMSRLVRGGSGTKRALIQCAKDIAKASDEVTRLAKEVAKQCTDKRIRTNLLQVCERIPTISTQLKILSTVKATMLGRTNISDEESEQATEMLVHNAQNLMQSVKETVREAEAASIKIRTDAGFTLRWVRKTPWYQ
In the case of B2, the Tumor selectivity in [1] (non-tumor cells A5) is listed as 0.67; in [1] (non-tumor cells Adipose), 1.27; in assay [1] (non-tumor cells MSC) it was 0.89; in assay [2] (non-tumor cells A5), 1.13; in [2] (non-tumor cells Adipose), 1.88; in assay [2] (non-tumor cells MSC), 1.43. Further, the Tumor selectivity in [5] (non-tumor cells A5) is reported as 0.99; in assay [5] (non-tumor cells Adipose), 1.43; in [5] (non-tumor cells MSC), 1.57. Also, the EdU-based proliferation entry in assay [11] is “reduced”. Moreover, the TRANSWELL invasion entry in assay [3] was “reduced”. The “level of Kdm3a” value in assay [4] is listed as “reduced”. Also, the “Lrp5, MMP9, Runx2, TGFβ, and Snail” value in assay [4] is “downregulated”.
